Results as given in patent US20040242853A1.
Square brackets hold non-standard residues; d marks the D form. Ends that are not written are not given here. Ahx = NCCCCCC(=O)O

How the values were obtained:
[1] = system: GLP-1 (7-36) amide
[2] = system: GLP-1 6-aminohexanoic acid8
[3] = target: human GLP-1 receptor (CHO cells stably transfected with the human GLP-1 receptor) (human) (UniProt P43220); test: displacement of 125I-GLP-1 from intact CHO/GLP-1R cells (Example 9)
[4] = target: T1, human GLP-1 receptor (CHO cells stably transfected with the human GLP-1 receptor) (human), P43220; test: cell-based or functional assay
T1 chain: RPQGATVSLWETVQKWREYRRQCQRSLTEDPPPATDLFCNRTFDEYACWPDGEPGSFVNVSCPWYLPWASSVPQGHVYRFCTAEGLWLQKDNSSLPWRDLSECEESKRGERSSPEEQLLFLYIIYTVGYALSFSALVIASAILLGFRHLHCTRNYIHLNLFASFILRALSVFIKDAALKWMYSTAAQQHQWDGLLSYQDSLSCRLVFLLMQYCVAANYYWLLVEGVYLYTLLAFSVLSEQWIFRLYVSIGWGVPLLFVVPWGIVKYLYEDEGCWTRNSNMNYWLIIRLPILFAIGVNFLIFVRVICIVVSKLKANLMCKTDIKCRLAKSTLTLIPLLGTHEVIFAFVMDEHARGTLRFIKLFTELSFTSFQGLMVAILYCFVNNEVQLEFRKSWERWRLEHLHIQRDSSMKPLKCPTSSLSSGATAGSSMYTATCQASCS

[5] = target: T1, human GLP-1 receptor (CHO cells stably …); test: displacement of 125I-GLP-1 from intact CHO/GLP-1R cells (Example 9)

Sequence of Exendin (1-35) (peptide; other documents disagree on this pair) (C6EVG1 48-82): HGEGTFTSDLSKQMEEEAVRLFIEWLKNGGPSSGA

In the case of “recombinant DPPIV (dipeptidyl peptidase IV)”, the “N-terminal truncated product measured by MALDI-TOF” value [1] is reported as “caused a considerable increase in the amount of N-terminal truncated product (Mr=3089 gmol-1) as measured by MALDI” and the “N-terminal truncated product measured by MALDI-TOF” value [2] is reported as “In contrast GLP-1 Aha^8 (2 µM) appeared resistant to either treatment”.

Molecule “Exendin (1-35) (peptide; other documents disagree on this pair)” has an IC50 [3] of 7 nM.

For H[Ahx]AEGTFTSDVSSYLEGQAAKEFIAWLVKGR (ends and bridges not checked) [GLP-1 6-aminohexanoic acid8], the intracellular cAMP production in CHO/GLP-1R cells (fold above basal) [4] was 4.

For HGEGTFTSDVSSYLEGQAAKEFIAWLVKGRPSSGAPPPS (modifications not checked) [GLP-1 Gly8(7-36) Exendin(31-39)], the IC50 [5] was 74 nM.
